Data: patent publication US20240238380A1 (YUHAN, published 2024)

Molecular target: GFRAL/RET overexpressed on HEK293 cells (GFRAL/RET/SRE-luc-overexpressing HEK293 cell line) (UniProt Q6UXV0 19-394; P07949 29-1114, limits assumed)
Experiment: cell-based or functional assay

Sequence of GFRAL/RET overexpressed on HEK293 cells (GFRAL/RET/SRE-luc-overexpressing HEK293 cell line) (Q6UXV0 19-394 limits assumed, chain 1 of 2): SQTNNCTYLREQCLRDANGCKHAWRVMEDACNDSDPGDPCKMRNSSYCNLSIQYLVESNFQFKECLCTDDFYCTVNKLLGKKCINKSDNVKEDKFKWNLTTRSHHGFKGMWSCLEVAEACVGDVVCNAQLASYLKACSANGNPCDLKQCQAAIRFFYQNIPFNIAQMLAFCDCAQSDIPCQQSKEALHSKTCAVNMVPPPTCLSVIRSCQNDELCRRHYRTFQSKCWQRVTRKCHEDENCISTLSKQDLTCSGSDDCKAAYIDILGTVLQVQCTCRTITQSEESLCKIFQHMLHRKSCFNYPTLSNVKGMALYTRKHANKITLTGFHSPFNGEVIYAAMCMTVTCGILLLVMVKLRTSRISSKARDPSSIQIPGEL
Sequence of GFRAL/RET overexpressed on HEK293 cells (GFRAL/RET/SRE-luc-overexpressing HEK293 cell line) (P07949 29-1114 limits assumed, chain 2 of 2): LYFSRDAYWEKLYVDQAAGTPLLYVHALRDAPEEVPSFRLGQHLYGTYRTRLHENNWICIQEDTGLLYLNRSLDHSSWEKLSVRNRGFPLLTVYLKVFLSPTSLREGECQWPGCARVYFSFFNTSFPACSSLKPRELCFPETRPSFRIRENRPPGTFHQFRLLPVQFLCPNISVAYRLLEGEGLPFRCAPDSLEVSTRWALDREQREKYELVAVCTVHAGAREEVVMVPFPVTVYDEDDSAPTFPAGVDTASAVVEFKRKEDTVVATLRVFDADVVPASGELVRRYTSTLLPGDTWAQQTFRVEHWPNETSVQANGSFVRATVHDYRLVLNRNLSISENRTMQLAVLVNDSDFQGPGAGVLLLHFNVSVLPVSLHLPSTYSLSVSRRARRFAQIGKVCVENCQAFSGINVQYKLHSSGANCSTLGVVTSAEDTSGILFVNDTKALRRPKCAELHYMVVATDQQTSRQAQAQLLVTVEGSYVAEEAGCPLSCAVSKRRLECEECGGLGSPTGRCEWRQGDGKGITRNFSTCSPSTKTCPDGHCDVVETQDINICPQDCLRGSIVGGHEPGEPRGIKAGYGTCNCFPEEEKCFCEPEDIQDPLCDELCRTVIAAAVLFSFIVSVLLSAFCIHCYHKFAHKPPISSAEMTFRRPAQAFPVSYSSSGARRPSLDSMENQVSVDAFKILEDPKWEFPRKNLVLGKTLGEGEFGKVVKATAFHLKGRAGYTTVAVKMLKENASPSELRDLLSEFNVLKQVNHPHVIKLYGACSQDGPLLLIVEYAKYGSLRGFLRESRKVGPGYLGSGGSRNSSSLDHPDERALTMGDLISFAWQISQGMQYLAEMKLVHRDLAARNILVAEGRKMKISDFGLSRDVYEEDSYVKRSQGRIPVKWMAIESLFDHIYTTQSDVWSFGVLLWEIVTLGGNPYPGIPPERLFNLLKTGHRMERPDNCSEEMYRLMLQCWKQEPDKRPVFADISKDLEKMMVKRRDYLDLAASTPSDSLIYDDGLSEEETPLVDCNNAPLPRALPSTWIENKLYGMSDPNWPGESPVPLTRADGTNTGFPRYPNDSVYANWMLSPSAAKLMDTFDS

Binder | EC50 (nM), SRE-luciferase reporter (RLU) [nM] | Emax (%), SRE-luciferase reporter (RLU), relative to FM9-6+Fc_hole [%]
FM9-2 + Fc_hole long-acting GDF15 fusion protein (dimer) (Fc fusion) chain 1: APEAAGGPSVFLFPPKPKDTLMISRTPEVTCVVVDVSHEDPEVKFNWYVDGVEVHNAKTKPREEQYASTYRVVSVLTVLHQDWLNGKEYKCKVSNKALPAPIEKTISKAKGQPREPQVYTLPPSREEMTKNQVSLWCLVKGFYPSDIAVEWESNGQPENNYKTTPPVLDSDGSFFLYSKLTVDKSRWQQGNVFSCSVMHEALHNHYTQKSLSLSPGKGSGGGGSGGGGSGGGGSGGGGSGGGGSNGDHCPLGPGRCCRLHTVRASLEDLGWADWVLSPREVQVTMCIGACPSQFRAANMHAQIKTRLHRLKPDTVPAPCCVPASYNPMVLIQKTDTGVSLQTYDDLLAKDCHCI chain 2: APEAAGGPSVFLFPPKPKDTLMISRTPEVTCVVVDVSHEDPEVKFNWYVDGVEVHNAKTKPREEQYASTYRVVSVLTVLHQDWLNGKEYKCKVSNKALPAPIEKTISKAKGQPREPQVYTLPPSREEMTKNQVSLSCAVKGFYPSDIAVEWESNGQPENNYKTTPPVLDSDGSFFLVSKLTVDKSRWQQGNVFSCSVMHEALHNHYTQKSLSLSPGK | 9.5 | 111
FM9-4 + Fc_hole long-acting GDF15 fusion protein (dimer) (Fc fusion) chain 1: APEAAGGPSVFLFPPKPKDTLMISRTPEVTCVVVDVSHEDPEVKFNWYVDGVEVHNAKTKPREEQYASTYRVVSVLTVLHQDWLNGKEYKCKVSNKALPAPIEKTISKAKGQPREPQVYTLPPSREEMTKNQVSLWCLVKGFYPSDIAVEWESNGQPENNYKTTPPVLDSDGSFFLYSKLTVDKSRWQQGNVFSCSVMHEALHNHYTQKSLSLSPGKGSEEEAEEEAEEEAEEEAEEEAEEEANGDHCPLGPGRCCRLHTVRASLEDLGWADWVLSPREVQVTMCIGACPSQFRAANMHAQIKTRLHRLKPDTVPAPCCVPASYNPMVLIQKTDTGVSLQTYDDLLAKDCHCI chain 2: APEAAGGPSVFLFPPKPKDTLMISRTPEVTCVVVDVSHEDPEVKFNWYVDGVEVHNAKTKPREEQYASTYRVVSVLTVLHQDWLNGKEYKCKVSNKALPAPIEKTISKAKGQPREPQVYTLPPSREEMTKNQVSLSCAVKGFYPSDIAVEWESNGQPENNYKTTPPVLDSDGSFFLVSKLTVDKSRWQQGNVFSCSVMHEALHNHYTQKSLSLSPGK | 23.6 | 128
FM9-3 + Fc_hole long-acting GDF15 fusion protein (dimer) (Fc fusion) chain 1: APEAAGGPSVFLFPPKPKDTLMISRTPEVTCVVVDVSHEDPEVKFNWYVDGVEVHNAKTKPREEQYASTYRVVSVLTVLHQDWLNGKEYKCKVSNKALPAPIEKTISKAKGQPREPQVYTLPPSREEMTKNQVSLWCLVKGFYPSDIAVEWESNGQPENNYKTTPPVLDSDGSFFLYSKLTVDKSRWQQGNVFSCSVMHEALHNHYTQKSLSLSPGKGSGGGGSGGGGSGGGGSGGGGSGGGGSGGGGSGGGGSNGDHCPLGPGRCCRLHTVRASLEDLGWADWVLSPREVQVTMCIGACPSQFRAANMHAQIKTRLHRLKPDTVPAPCCVPASYNPMVLIQKTDTGVSLQTYDDLLAKDCHCI chain 2: APEAAGGPSVFLFPPKPKDTLMISRTPEVTCVVVDVSHEDPEVKFNWYVDGVEVHNAKTKPREEQYASTYRVVSVLTVLHQDWLNGKEYKCKVSNKALPAPIEKTISKAKGQPREPQVYTLPPSREEMTKNQVSLSCAVKGFYPSDIAVEWESNGQPENNYKTTPPVLDSDGSFFLVSKLTVDKSRWQQGNVFSCSVMHEALHNHYTQKSLSLSPGK | 9.3 | 95.6
